Drawing on article PMC4118443 (2014), this text covers Kd for one molecule.

The target in this assay is T1, NS5A 347-361 (Hepatitis C virus, UniProt P26664).
T1 chain: PKSPPVPPPRKKRTV
Put plainly: fluorescence titration.

B1: Bin1 SH3 (protein)
chain: LPPGFMFKVQAQHDYTATDTDELQLKAGDVVLVIPFQNPEEQDEGWLMGVKESDWNQHKELEKCRGVFPENFTERVP
For the molecule B1, the equilibrium dissociation constant (Kd) worked out at 200 nM.
